Test results reported in patent US20130109581A1, “POSITIVELY CHARGED SPECIES AS BINDING REAGENTS IN THE SEPARATION OF PROTEIN AGGREGATES FROM MONOMERS” (priority 2009, published 2013).
Read-outs that look alike come from different tables or passages of the source. Where no end group is shown, it is not given here. [ ]: non-standard residue; d: D form. Ahx = NCCCCCC(=O)O

Key:
Assay type in all cases: binding
[1] = target: Abeta 42 globulomer (Homo sapiens, UniProt P05067); experiment: NMPA with detergent washing after PSR1 pulldown: globulomer detection
[2] = target: T1, normal CSF Aβ42 (Homo sapiens, UniProt P05067); experiment: NMPA with detergent washing: background from unspiked CSF, Abeta42; conditions: CSF; PSR1 beads treated with detergent post capture
T1 construct: reduced the detection of normal CSF Aβ42 to the background levels; from tissue; host or cells: pooled normal cerebrospinal fluid
Method: Second, two neutral detergents, polyethylene glycol sorbitan monolaurate (available as TWEEN 20 from Sigma-Aldrich, St. Louis, Mo.) and n-tetradecyl-N,N-dimethyl-3-ammonio-1-propanesulfonate (available as ZWITTERGENT 3-14 from EMI) Chemicals, Gibbstown, N.J.) were used to treat the globulomer-spiked CSF samples that had been contacted with PSR1 beads. For each assay, a mixture of 30 μl of PSR1 beads (coated at about 7-12 nmol PSR1 ligand/mg DYNAL beads, which were used in this example and in the following examples unless otherwise stated) and 70 μl of 1×TBSTT was immediately pipetted into each well on the pulldown plate. The liquid was removed on a magnetic separator. Fifty micro liters of 5×TBSTT was added to each well. The beads were suspended by briefly shaking at 750 rpm. Next […] of TBSTT or CSF sample without globulomer was added to each well. The pulldown plate was sealed and incubated at 37° C. for 1 hour with shaking at 500 rpm. After incubation, the beads were washed 8 times with TBST on the plate washer. After the plate wash, residual TBST buffer was removed from the beads on the magnetic separator. The beads were then incubated with 100 μl of either TBS, 1% Tween20 or 1% Zwittergent 3-14 for 30 minutes at room temperature at 750 rpm, (followed by an additional 8 washes with TBST on the plate washer. After removing residual TBST on the magnetic separator, 20 μl of denaturing solution, typically 0.1-0.15 N NaOH, was added to the beads. The plate was covered with an aluminum foil plate sealer and incubated at 80° C. for 30 minutes with shaking at 750 rpm. After incubation, the plate was cooled to room temperature and twenty micro liters of neutralizing solution, typically 0.12-0.18 M NaH2PO4+0.4% Tween20) was added into each well and the plate was incubated at room temperature for 5 minutes with shaking at 750 rpm. […] MSD Abeta Triplex Assay was preformed according to the manufacturer's instructions.
A summary of the assay results and calculated signal/noise is shown below in Table 17.

[3] = target: T2, Abeta 1-40 monomer (Homo sapiens, UniProt P05067); experiment: Globulomer capture assay in CSF (Example 6): Abeta 1-40 noise; conditions: for 40, 1 ng/ml average reading: Abeta 1-40 signal (noise), CSF samples; for background monomeric Abeta capture (noise): CSF
T2 construct: Abeta 1-40 monomer capture level; from tissue; host or cells: cerebrospinal fluid (matrix of the assay)
Method: (§1) A series of new potential aggregate-specific binding reagents were designed as shown below and conjugated onto magnetic Dynal M270 beads as described in Example 2. Typically 7-12 nmol of ligand (each candidate aggregate-specific binding reagent) was coated onto 1 mg of beads.
(§2) Aliquots of the beads (typically 3 ul) were added to wells of a 96 well plate, followed by sample (with or without Abeta 1-42 globulomer (an Abeta42 oligomer model) spiked in 80:20 CSF:TBSTT, typically 125 ul). The plate was sealed and incubated for 1 hour at 37° C. with shaking. The plate was washed with aqueous solutions of detergent (typically polyethylene glycol sorbitan monolaurate and n-tetradecyl-N,N-dimethyl-3-ammonio-1-propanesulfonate) to remove ubound material and the residual buffer removed. A denaturing solution (typically 0.1-0.15 N NaOH) was added to each well and the plate heated to 80° C. for 30 min with shaking. After cooling the plate to room temperature, a neutralizing buffer (typically 0.12-0.18 M NaH2PO3 in 0.4% TWEEN20,) was added and the plate was shaken briefly at room temperature. The bead eluate was analyzed using either an Aβ42-specific ELISA or the MSD® 96-Well MULTI-SPOT® Human/Rodent [4G8] Abeta Triplex Ultra-Sensitive Assay from Meso Scale Discovery (Gaithersburg, Md.). For the Aβ42-specific assay, the samples were eluted from the beads and a detection antibody (4G8 HRP) was added to a plate bearing the Aβ42-specific antibody 12F4. The plate was incubated for 1 hour, washed, the substrate was added (SuperSignal West Femto Maximum Sensitivity Substrate from Thermo Fisher, Rockville, Md.), and the luminescence was measured. The MSD plate assay was performed in a similar fashion, according to the manufacturer's protocol.
(§3) In this experiment the preferred number of charges within a given scaffold was identified. An Ala/Lys peptide framework was utilized, where the inclusion of each Lys residue increases the peptides' net charge by +1. Six hexapeptides with increasing charge (+1→+6), AAAKAA, AAKKAA, AAKKKA, AKKKKA, AKKKKK, and KKKKKK, were prepared and conjugated on the beads. The ability of these beads to capture Abeta 1-42 globulomer spiked at 1 ng/mL into CSF was tested, and the result is shown in FIG. 25. The globulomer capture level (“42 1 ng/ml” or the closed bars) was compared to the background signal of Abeta 1-42 detected in the unspiked CSF (“42 0 ng/ml”) and the background signal of Abeta 1-40 detected in unspiked CSF (“40 0 ng/ml”) or CSF spiked with AB42 oligomers “40 1 ng/ml”. The charge density, as conjugated to the magnetic beads, of each reagent evaluated in this experiment is shown below in Table 8.

[4] = target: T3, Abeta 1-42 globulomer (Homo sapiens, UniProt P05067); experiment: Globulomer capture assay in CSF (Example 6); conditions: for 42:40 (signal:noise ratio): 1 ng/ml average reading, ratio of 42 to 40; for 42, 1 ng/ml average reading: Abeta 1-42 globulomer spiked at 1 ng/mL into CSF; for globulomer capture: Abeta42 globulomer spiked into CSF, reagents on beads
T3 construct: beta amyloid (1-42) was monomerized with incubation in hexafluoroisopropanol
Method: as §1, §2, §3

[5] = 0.5 ng/mL vs 0 ng/mL globulomer
[6] = Abeta 42 RLU at 0.5 ng/mL over average Abeta 40 RLU
[7] = CSF, PSR1 beads treated with detergent post capture

Compound	40, 1 ng/ml average reading [3] [RLUs]	42:40 (signal:noise ratio) [4]	42, 1 ng/ml average reading [4] [RLUs]	globulomer capture [4]	further results
CCCCCCCCCCCCCC(=O)NCCC[N+](C)(C)CCCS(=O)(=O)[O-] [ASB-14, Amidosulfobetaine-14,3-[N,N-Dimethyl(3-myristoylaminopropyl)ammonio]propanesulfonate]	–	–	–	–	Abeta 42 RLU, 0.5 ng/mL Abeta 42 globulomer, Average [1]: 779.3 RLU; S/N Abeta 42 globulomer-spiked/Abeta 40 [1]: 2.0; S/N Abeta 42 globulomer-spiked/unspiked [1]: 8.7; Abeta 42 RLU, 0 ng/mL Abeta 42 globulomer, Average [2]: 89.7 RLU
CCCCCCCCCCCCCCCC(=O)NCCC[N+](C)(C)CCCS(=O)(=O)[O-] [ASB-16, Amidosulfobetain-16,3-[N,N-Dimethyl-N-(3-palmitamidopropyl)ammonio]propane-1-sulfonate]	–	–	–	–	Abeta 42 RLU, 0.5 ng/mL Abeta 42 globulomer, Average [1]: 788.7 RLU; S/N Abeta 42 globulomer-spiked/Abeta 40 [1]: 2.8; S/N Abeta 42 globulomer-spiked/unspiked [1]: 8.2; Abeta 42 RLU, 0 ng/mL Abeta 42 globulomer, Average [2]: 95.7 RLU
CCCCCCCCc1ccc(C(=O)NCCC[N+](C)(C)CCCS(=O)(=O)[O-])cc1 [ASB-C8phn, 4-n-Octylbenzoylamido-propyl-dimethylammonio Sulfobetaine]	–	–	–	–	Abeta 42 RLU, 0.5 ng/mL Abeta 42 globulomer, Average [1]: 936.3 RLU; S/N Abeta 42 globulomer-spiked/Abeta 40 [1]: 1.4; S/N Abeta 42 globulomer-spiked/unspiked [1]: 9.3; Abeta 42 RLU, 0 ng/mL Abeta 42 globulomer, Average [2]: 100.7 RLU
CCCCCCCCCCCC[N+](C)(C)CC(=O)[O-] [Empigen, N,N-Dimethyl-N-dodecylglycine betaine]	–	–	–	–	S/N Abeta 42 globulomer-spiked/unspiked [1, 5]: 8.7; S/N Abeta 42 globulomer-spiked/Abeta 40 [1, 6]: 2.6; Abeta 42 RLU, 0.5 ng/mL Abeta 42 globulomer, Average [1, 7]: 670.3 RLU; Abeta 42 RLU, 0 ng/mL Abeta 42 globulomer, Average [2]: 76.7 RLU
CCCCCCCC[N+](C)(C)CCCS(=O)(=O)[O-] [ZW3-08]	–	–	–	–	Abeta 42 RLU, 0.5 ng/mL Abeta 42 globulomer, Average [1]: 668.7 RLU; S/N Abeta 42 globulomer-spiked/Abeta 40 [1]: 0.9; S/N Abeta 42 globulomer-spiked/unspiked [1]: 6.8; Abeta 42 RLU, 0 ng/mL Abeta 42 globulomer, Average [2]: 97.7 RLU
AAAKAA	134.5	0.8	113.5	–	–
AAKKAA	147	1.1	159.5	–	–
AAKKKA	159	1.6	247	–	–
AKKKKA	155.5	2.1	322.5	significantly lower globulomer capture efficiency	–
AKKKKK	176	2.5	442	–	–
ANFFAHSS	543	1.8	994.5	–	–
Ac-KKKFKF: acetylated KKKFKF peptide conjugated to beads with the Ahx-Ahx-Cys-NH2 linker (Ac-KKKFKF[Ahx][Ahx]C-NH2; also: conjugated to beads via the linker)	–	–	–	captured globulomer specifically	–
DFKLNFKF	259.5	2	515.5	–	–
F-fdb-F-fdb-fdb-fdb	–	–	–	more effective than the δ peptide	–
FKFKKK-link: FKFKKK peptide reagent with linker to bead at the right end; charge closest to the beads (FIG. 27) (not fully specified (C-terminus); printed as FKFKKK-link; also: attached to bead through link at right end)	348	5.7	1995	significantly better than the remainder of the beads	–
FKFNLFSG	1327.5	2.4	3230.5	efficient at capturing globulomer	background monomeric Abeta capture (noise) [3]: captured significant amounts of background monomeric species
FKFSLFSG	2011	1.5	3078.5	efficient at capturing globulomer	background monomeric Abeta capture (noise) [3]: captured significant amounts of background monomeric species
FoFooo	–	–	–	captured globulomers specifically	–
IRYVTHQYILWP	1011.5	3.2	3242	efficient at capturing globulomer	background monomeric Abeta capture (noise) [3]: captured significant amounts of background monomeric species
KFKKKF	–	–	–	captured globulomers specifically	–
KIGVVR	–	–	–	captured Abeta 1-42 globulomer at a high level that's similar to PSR1's globulomer capture level	background monomeric Abeta capture (noise) [3]: low levels of monomeric Abeta 1-40 noise similar to PSR1's
KKFKKF	–	–	–	captured globulomers specifically	–
KKKFKF-link: KKKFKF peptide reagent with linker to bead at the right end (FIG. 27) (not fully specified (C-terminus); also: attached to bead through link at right end)	191.5	3.9	748	able to capture globulomers	–
link-FKFKKK: FKFKKK peptide reagent with linker to bead at the left end (FIG. 27) (not fully specified (N-terminus); also: attached to bead through link at left end)	198	4.1	808	able to capture globulomers	–
n-Dodecyl-N,N-dimethyl-3-ammonio-1-propanesulfonate [ZW3-12]	–	–	–	–	S/N Abeta 42 globulomer-spiked/unspiked [1, 5]: 7.1; S/N Abeta 42 globulomer-spiked/Abeta 40 [1, 6]: 1.4; Abeta 42 RLU, 0.5 ng/mL Abeta 42 globulomer, Average [1, 7]: 642.0 RLU; Abeta 42 RLU, 0 ng/mL Abeta 42 globulomer, Average [2]: 90.7 RLU
